This note sets out measurements from patent US20240190950A1 (SHANGHAI JIAO TONG UNIVERSITY, published 2024).

B1: Gremlin1 (human gremlin 1, hGREM1) (ligand)
chain: KKKGSQGAIPPPDKAQHNDSEQTQSPQQPGSRNRGRGQGRGTAMPGEEVLESSQEALHVTERKYLKRDWCKTQPLKQTIHEEGCNSRTIINRFCYGQCNSFYIPRHIRKEEGSFQSCSFCKPKKFTTMMVTLNCPELQPPTKKKRVTRVKQCRCISIDLD
modifications: biotin label in the ForteBio assay (site not stated)
notes: also called Gremlin1-biotin; Flag-tagged GREM1

The target in experiment [1] is T1, FGFR1 (protein used in the ForteBio and ELISA assays) (human, UniProt P11362 22-376, limits assumed).
T1 construct: That entry still holds signal peptide, transmembrane and kinase parts; also called human FGFR1
T1 sequence: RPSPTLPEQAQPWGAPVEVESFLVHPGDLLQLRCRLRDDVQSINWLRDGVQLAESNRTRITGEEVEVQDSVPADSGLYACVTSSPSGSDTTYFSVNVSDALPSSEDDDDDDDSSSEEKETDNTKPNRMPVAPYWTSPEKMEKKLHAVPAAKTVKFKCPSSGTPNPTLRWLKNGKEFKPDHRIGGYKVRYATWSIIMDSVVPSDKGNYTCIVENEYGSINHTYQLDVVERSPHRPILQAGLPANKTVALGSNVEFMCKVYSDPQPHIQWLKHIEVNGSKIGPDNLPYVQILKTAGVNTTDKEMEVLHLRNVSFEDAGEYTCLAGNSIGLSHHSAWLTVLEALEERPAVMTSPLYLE
Briefly: ForteBio (the text calls it surface plasmon resonance analysis); Gremlin1-biotin immobilized on streptavidin sensor, FGFR1 in solution. From the text:
We next asked the mechanism leading to the activation of the FGFR1/MEK/ERK signaling pathway by GREM1. We performed surface plasmon resonance analysis (Fortebio) to first assess whether GREM1 can bind to FGFR1. […] Computer simulation imitated that GREM1 binds to the extracellular domain of FGFR1 as a dimer (FIG. 9B). […] In addition, the activation of GREM1 on the FGFR1/MEK/ERK signaling pathway could be attenuated by adding excessive amount of soluble FGFR1 (FIG. 9G).
In general terms: BLI is a label-free optical method that tracks binding on a fibre tip over time.

The target in experiment [2] is B1. The experiment is described as follows: ELISA, antibody titrated on Gremlin1 (Ab is anti-human-Gremlin1 14E3). A general note: ELISA stands for enzyme-linked immunosorbent assay.

Take B1: in experiment [1], binding was put at a Kd of 10.6 nM.

B2: 14E3 (antibody, IgG2a, V domains shown)
VH: QIQLVQSGPELKKPGETVKISCKTSGSTFTTYGMAWMKQAPGKGLTWMGWINTLSGEPTYADDFKGRFAFSLKTSANTAYLQINNLKNEDAATYFCAREPMDYWGQGTSVIVSS
VL: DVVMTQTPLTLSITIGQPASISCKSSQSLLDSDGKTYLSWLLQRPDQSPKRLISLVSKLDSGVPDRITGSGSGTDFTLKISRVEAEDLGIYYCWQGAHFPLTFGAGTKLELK
notes: also called anti-human-Gremlin1 (14E3); anti-human-GREM1 antibody 14E3
As for B2, the “EC50 (read off the curve)” value in experiment [2] was approximately 10 ng/mL.

By Kd is commonly meant the constant that tells how readily two partners part at equilibrium. Lower therefore signals tighter binding. For orientation: EC50 (read off the curve) means the midpoint of the concentration-response curve. A lower EC50 (read off the curve) goes with greater potency.
